Data taken from patent US20090188010A1.

How the values were obtained:
[1] = target: NaPI-insensitive chymotrypsin from H. punctigera (HpCh5), native enzyme from the larval gut (Helicoverpa punctigera); assay: cell-based or functional assay
[2] = target: chymotrypsins in unfractionated gut extracts from H. punctigera larvae; assay: cell-based or functional assay

Sequence of NaPI-insensitive chymotrypsin from H. punctigera (HpCh5), native enzyme from the larval gut (Helicoverpa punctigera) (chain, as listed by the source limits assumed): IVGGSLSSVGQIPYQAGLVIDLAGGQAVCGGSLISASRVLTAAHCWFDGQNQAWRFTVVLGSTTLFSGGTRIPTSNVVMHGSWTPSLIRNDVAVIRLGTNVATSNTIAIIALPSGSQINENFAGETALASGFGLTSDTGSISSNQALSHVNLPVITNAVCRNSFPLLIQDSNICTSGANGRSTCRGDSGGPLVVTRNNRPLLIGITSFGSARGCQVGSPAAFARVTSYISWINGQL

inhibition of SA2PFpNA or SA2PLpNA hydrolysis at 300 nM inhibitor [1]	inhibition of SA2PMpNA hydrolysis [1]	inhibition of gut chymotrypsin activity, unfractionated gut extract (FIG. 3) [2]	Binder
> 75%	40%	–	StPotIA, bacterially expressed with N-terminal 6xHis-tag (protein, not shown: small tags and cut ends) KESESESWCKGKQFWPELIGVPTKLAKEIIEKENPSINDVPIILNGTPVPADFRCNRVRLFDNILGDVVQIPRVA
> 75%	40%	–	StPotIB, bacterially expressed with N-terminal 6xHis-tag (protein, not shown: small tags and cut ends) KEFECNGKQFWPELIGVPTKLAKEIIEKENSLINNVQILLNGSPVTMDYRCNRVRLFDNILGSVVQIPRVA
–	–	70%	recombinant C1 inhibitor with N-terminal hexahistidine tag, expressed in E. coli (protein, not shown: small tags and cut ends) DRICTNCCAGTKGCKYFSDDGTFVCEGESDPRNPKACTLNCDPRIAYGVCPRSEEKKN
